Experimental data: the supplement of paper PMC11246515
± gives the standard deviation of the averaged measurements.

Assay: total protein half-life in vivo (active degradation + dilution); higher = more stable protein
[1] = E. coli NCM3722 delta-clpP delta-lon delta-hslV, growth: N-lim chemostat, doubling time 6 h
[2] = E. coli NCM3722 delta-clpP, growth: N-lim chemostat, doubling time 6 h
[3] = E. coli NCM3722 delta-hslV, growth: N-lim chemostat, doubling time 6 h
[4] = E. coli NCM3722 delta-lon, growth: N-lim chemostat, doubling time 6 h
[5] = wild type E. coli NCM3722, growth: C-lim chemostat, doubling time 3 h
[6] = wild type E. coli NCM3722, growth: C-lim chemostat, doubling time 6 h
[7] = wild type E. coli NCM3722, growth: C-lim chemostat, doubling time 12 h
[8] = wild type E. coli NCM3722, growth: N-lim chemostat, doubling time 6 h
[9] = wild type E. coli NCM3722, growth: N-lim chemostat, doubling time 12 h
[10] = wild type E. coli NCM3722, growth: P-lim chemostat, doubling time 6 h
[11] = wild type E. coli NCM3722, growth: P-lim chemostat, doubling time 12 h
[12] = E. coli NCM3722 delta-smpB, growth: N-lim chemostat, doubling time 6 h

Sequence	total protein half-life in vivo [1]	total protein half-life in vivo [2]	total protein half-life in vivo [3]	total protein half-life in vivo [4]	total protein half-life in vivo [5]	total protein half-life in vivo [6]	total protein half-life in vivo [7]	total protein half-life in vivo [8]	total protein half-life in vivo [9]	total protein half-life in vivo [10]	total protein half-life in vivo [11]	total protein half-life in vivo [12]
MHVKYLAGIVGAALLMAGCSSSNELSAAGQSVRIVDEQPGAECQLIGTATGKQSNWLSGQHGEEGGSMRGAANDLRNQAAAMGGNVIYGISSPSQGMLSSFVPTDSQIIGQVYKCPN [P0AF70]	6.05 h	6.18 ± 0.3 h	6.86 h	6.39 h	3.19 ± 0.049 h	5.95 ± 0.4 h	10.7 ± 0.76 h	7.12 h	12.9 ± 0.69 h	6.01 ± 0.24 h	11.7 ± 0.94 h	
MSKVKSITRESWILSTFPEWGSWLNEEIEQEQVAPGTFAMWWLGCTGIWLKSEGGTNVCVDFWCGTGKQSHGNPLMKQGHQMQRMAGVKKLQPNLRTTPFVLDPFAIRQIDAVLATHDHNDHIDVNVAAAVMQNCADDVPFIGPKTCVDLWIGWGVPKERCIVVKPGDVVKVKDIEIHALDAFDRTALITLPADQKAAGVLPDGMDDRAVNYLFKTPGGSLYHSGDSHYSNYYAKHGNEHQIDVALGSYGENPRGITDKMTSADMLRMGEALNAKVVIPFHHDIWSNFQADPQEIRVLWEMKKDRLKYGFKPFIWQVGGKFTWPLDKDNFEYHYPRGFDDCFTIEPDLPFKSFL	5.04 ± 0.82 h				3.56 h		11.2 h			3.67 ± 0.66 h	9.39 h	
MNPTRYARICEMLARRQPDLTVCMEQVHKPHNVSAIIRTADAVGVHEVHAVWPGSRMRTMASAAAGSNSWVQVKTHRTIGDAVAHLKGQGMQILATHLSDNAVDFREIDYTRPTCILMGQEKTGITQEALALADQDIIIPMIGMVQSLNVSVASALILYEAQRQRQNAGMYLRENSMLPEAEQQRLLFEGGYPVLAKVAKRKGLPYPHVNQQGEIEADADWWATMQAAG [P0AGJ2]		5.55 h	5.14 ± 0.28 h	5.86 h	2.85 ± 0.62 h	5.7 ± 0.66 h	10.7 ± 1.5 h	5.5 ± 0.66 h	10 ± 0.54 h	5.8 ± 0.23 h	12.5 ± 0.089 h	4.84 ± 0.18 h
MKQDLARIEQFLDALWLEKNLAENTLNAYRRDLSMMVEWLHHRGLTLATAQSDDLQALLAERLEGGYKATSSARLLSAVRRLFQYLYREKFREDDPSAHLASPKLPQRLPKDLSEAQVERLLQAPLIDQPLELRDKAMLEVLYATGLRVSELVGLTMSDISLRQGVVRVIGKGNKERLVPLGEEAVYWLETYLEHGRPWLLNGVSIDVLFPSQRAQQMTRQTFWHRIKHYAVLAGIDSEKLSPHVLRHAFATHLLNHGADLRVVQMLLGHSDLSTTQIYTHVATERLRQLHQQHHPRA [P0A8P8]	5.75 ± 1.2 h	2.02 ± 0.045 h	2.06 h	4.89 ± 0.092 h	1.74 ± 0.27 h	3.04 ± 0.085 h	4.08 ± 0.66 h	2.31 ± 0.2 h	3.34 ± 0.29 h		2.81 h	2.04 ± 0.034 h
MRLEFSIYRYNPDVDDAPRMQDYTLEADEGRDMMLLDALIQLKEKDPSLSFRRSCREGVCGSDGLNMNGKNGLACITPISALNQPGKKIVIRPLPGLPVIRDLVVDMGQFYAQYEKIKPYLLNNGQNPPAREHLQMPEQREKLDGLYECILCACCSTSCPSFWWNPDKFIGPAGLLAAYRFLIDSRDTETDSRLDGLSDAFSVFRCHSIMNCVSVCPKGLNPTRAIGHIKSMLLQRNA	6.38 ± 1.4 h	5.1 ± 0.12 h	5.6 ± 0.19 h	5.16 ± 1.2 h	3.17 ± 0.81 h	6.28 ± 0.13 h	11.9 ± 0.33 h	5.22 ± 0.7 h	10.7 ± 0.97 h	5.138 ± 0.038 h	10.5 ± 0.14 h	5.06 ± 0.28 h
MSTIVIFLAALLACSLLAGWLIKVRSRRRQLPWTNAFADAQTRKLTPEERSAVENYLESLTQVLQVPGPTGASAAPISLALNAESNNVMMLTHAITRYGISTDDPNKWRYYLDSVEVHLPPFWEQYINDENTVELIHTDSLPLVISLNGHTLQEYMQETRSYALQPVPSTQASIRGEESEQIELLNIRKETHEEYALSRPRGLREALLIVASFLMFFFCLITPDVFVPWLAGGALLLLGAGLWGLFAPPAKSSLREIHCLRGTPRRWGLFGENDQEQINNISLGIIDLVYPAHWQPYIAQDLGQQTDIDIYLDRHVVRQGRYLSLHDEVKNFPLQHWLRSTIIAAGSLLVLFMLLFWIPLDMPLKFTLSWMKGAQTIEATSVKQLADAGVRVGDTLRISGTGMCNIRTSGTWSAKTNSPFLPFDCSQIIWNDARSLPLPESELVNKATALTEAVNRQLHPKPEDESRVSASLRSAIQKSGMVLLDDFGDIVLKTADLCSAKDDCVRLKNALVNLGNSKDWDALVKRANAGKLDGVNVLLRPVSAESLDNLVATSTAPFITHETARAAQSLNSPAPGGFLIVSDEGSDFVDQPWPSASLYDYPPQEQWNAFQKLAQMLMHTPFNAEGIVTKIFTDANGTQHIGLHPIPDRSGLWRYLSTTLLLLTMLGSAIYNGVQAWRRYQRHRTRMMEIQAYYESCLNPQLITPSESLIE	7.278 ± 0.055 h	6.37 ± 0.32 h	6.48 ± 0.55 h	6.72 ± 0.7 h	3.25 ± 0.17 h		13.9 ± 1.9 h	6.06 ± 0.22 h	11.6 ± 1.6 h	6.84 ± 0.8 h		5.73 ± 0.16 h
